According to patent publication US20250034256A1 (EUCURE BEIJING BIOPHARMA, published 2025):

What was measured:
[1] = target: chimeric (mouse and human) PD-1 (chiPD-1) on transfected CHO cells (chimeric (mouse and human)); assay: flow cytometry on CHO cells transfected with chiPD-1 (CHO-chiPD-1); anti-mIgG Fc-FITC against SSC-H
[2] = target: mouse PD-1 (mPD-1) on transfected CHO cells (mouse) (UniProt Q02242); assay: flow cytometry on CHO cells transfected with mPD-1 (CHO-mPD-1); anti-mIgG Fc-FITC against SSC-H
Sequence of mouse PD-1 (mPD-1) on transfected CHO cells (mouse) (Q02242 25-288 limits assumed): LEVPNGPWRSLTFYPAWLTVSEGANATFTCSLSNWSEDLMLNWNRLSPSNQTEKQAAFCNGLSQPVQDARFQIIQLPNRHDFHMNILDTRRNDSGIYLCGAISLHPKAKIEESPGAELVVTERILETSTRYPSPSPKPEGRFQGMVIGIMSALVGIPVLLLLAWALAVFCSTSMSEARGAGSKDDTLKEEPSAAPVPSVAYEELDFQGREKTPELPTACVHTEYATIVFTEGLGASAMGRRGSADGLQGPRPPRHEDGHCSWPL

[3] = target: monkey (rhesus macaque) PD-1 (rmPD-1) on transfected CHO cells (rhesus macaque); assay: flow cytometry on CHO cells transfected with rmPD-1 (CHO-rmPD-1); anti-mIgG Fc-FITC against SSC-H
Sequence of monkey (rhesus macaque) PD-1 (rmPD-1) on transfected CHO cells (rhesus macaque) (Q15116 other isoform, or with tags, fused parts or gaps limits assumed): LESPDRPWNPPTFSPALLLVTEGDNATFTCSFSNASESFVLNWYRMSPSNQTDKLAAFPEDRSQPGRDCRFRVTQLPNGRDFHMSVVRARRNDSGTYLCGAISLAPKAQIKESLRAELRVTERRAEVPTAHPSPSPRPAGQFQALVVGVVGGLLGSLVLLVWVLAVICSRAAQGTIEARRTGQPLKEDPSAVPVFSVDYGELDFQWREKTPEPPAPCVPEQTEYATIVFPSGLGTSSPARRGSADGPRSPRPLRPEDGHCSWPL

Sequence of chimeric (mouse and human) PD-1 (chiPD-1) on transfected CHO cells (chimeric (mouse and human)) (chain, as listed by the source mutant limits assumed): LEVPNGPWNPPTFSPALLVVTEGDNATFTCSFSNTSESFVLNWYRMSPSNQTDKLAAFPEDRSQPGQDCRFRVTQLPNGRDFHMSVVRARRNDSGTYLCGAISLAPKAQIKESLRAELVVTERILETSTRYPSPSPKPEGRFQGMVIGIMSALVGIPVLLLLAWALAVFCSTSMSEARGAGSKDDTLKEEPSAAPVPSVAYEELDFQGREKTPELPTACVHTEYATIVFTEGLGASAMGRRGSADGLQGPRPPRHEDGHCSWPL

% cells positive for Anti-mouse-IgGFc-FITC [1]: 2.79% | % cells positive for Anti-mouse-IgGFc-FITC [2]: 0.346% | % cells positive for Anti-mouse-IgGFc-FITC [3]: 0.812%
Substance: NC
